The text below walks through data of publication doi:10.1101/2022.06.14.495942 (bioRxiv, 2022).

Assay [1] concerns the target T1, UFO in the purified ASK1-UFO-LFY-DBD complex (Arabidopsis thaliana, UniProt Q39090 1-442).
T1 sequence: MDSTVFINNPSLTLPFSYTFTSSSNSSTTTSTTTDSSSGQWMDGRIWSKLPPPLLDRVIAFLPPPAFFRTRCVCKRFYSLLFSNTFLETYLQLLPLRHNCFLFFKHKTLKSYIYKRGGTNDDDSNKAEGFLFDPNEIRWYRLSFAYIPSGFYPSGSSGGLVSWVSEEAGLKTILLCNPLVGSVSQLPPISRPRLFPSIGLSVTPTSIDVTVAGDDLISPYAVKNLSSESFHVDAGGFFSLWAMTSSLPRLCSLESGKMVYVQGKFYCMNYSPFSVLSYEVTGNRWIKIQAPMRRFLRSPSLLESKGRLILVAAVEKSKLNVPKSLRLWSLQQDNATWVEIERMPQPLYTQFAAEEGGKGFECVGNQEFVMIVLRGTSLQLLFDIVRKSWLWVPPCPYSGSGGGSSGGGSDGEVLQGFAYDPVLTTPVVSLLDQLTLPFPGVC
The experiment in a line: SEC-MALS.

In assay [2] the target is LFY-DBD in the purified ASK1-UFO-LFY-DBD complex (Arabidopsis thaliana). The experiment in a line: SEC-MALS.

B1: ASK1 in the purified ASK1-UFO-LFY-DBD complex (natural protein)
chain: MSAKKIVLKSSDGESFEVEEAVALESQTIAHMVEDDCVDNGVPLPNVTSKILAKVIEYCKRHVEAAASKAEAVEGAATSDDDLKAWDADFMKIDQATLFELILAANYLNIKNLLDLTCQTVADMIKGKTPEEIRTTFNIKNDFTPEEEEEVRRENQWAFE
For the molecule B1, the “stoichiometry N” value in assay [1] turned out to be 1.

B2: UFO in the purified ASK1-UFO-LFY-DBD complex (natural protein)
chain: T1 sequence
With B2, the stoichiometry N in assay [2] is 1.
